Results on three substances are retold here after article doi:10.1101/686782.

By stoichiometry N is commonly meant the number of molecules, sites or subunits per partner or assembly.

Holding throughout (experiment): cryo-EM structure
In experiment [1] the target is V. mimicus FliPQR complex (FliP5Q4R1) (Vibrio mimicus).
Experiment [2] has as its target V. mimicus FliQ (Vibrio mimicus).
For experiment [3], the target named is V. mimicus FliP (Vibrio mimicus).

In experiment [1], V. mimicus FlhB (natural protein) registered a stoichiometry N of 1. The substance V. mimicus FliQ (natural protein) showed a stoichiometry N in experiment [2] of 4. In turn, V. mimicus FliP (natural protein) displayed a stoichiometry N in experiment [3] of 5.
